Assay results published in paper PMC9054013 (2022).

B1: Cμ2 (μ2 residues 160 to 435) (domain or fragment)
chain: GWRREGIKYRRNELFLDVLESVNLLMSPQGQVLSAHVSGRVVMKSYLSGMPECKFGMNDKIVIEKQGKGTADETSKSGKQSIAIDDCTFHQCVRLSKFDSERSISFIPPDGEFELMRYRTTKDIILPFRVIPLVREVGRTKLEVKVVIKSNFKPSLLAQKIEVRIPTPLNTSGVQVICMKGKAKYKASENAIVWKIKRMAGMKESQISAEIELLPTNDKKKWARPPISMNFEVPFAPSGLKVRYLKVFEPKLNYSDHDVIKWVRYIGRSGIYETRC

Experiments:
Assay in all cases: ITC
FCHO2-N1+N2 EEK mutant = FCHO2-N1+N2 EEK mutant (human, UniProt Q0JRZ9-1 314-394, E320S | E321S | K326S)
FCHO2-N1+N2 E336A+F339S = FCHO2-N1+N2 E336A+F339S (human, UniProt Q0JRZ9-1 314-394, E336A | F339S)
[1] = biological target: AP2 α-appendage (residues 695 to 938) (UniProt P17427 695-938)
Sequence of AP2 α-appendage (residues 695 to 938) (P17427 695-938): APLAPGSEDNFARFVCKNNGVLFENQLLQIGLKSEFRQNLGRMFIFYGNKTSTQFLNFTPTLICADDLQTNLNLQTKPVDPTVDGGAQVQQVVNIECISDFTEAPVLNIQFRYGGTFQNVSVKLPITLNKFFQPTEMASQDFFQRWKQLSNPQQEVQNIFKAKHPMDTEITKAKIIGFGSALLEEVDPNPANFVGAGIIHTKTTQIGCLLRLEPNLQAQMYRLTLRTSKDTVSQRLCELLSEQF

Row | Binder | Kd (FCHO2-N1+N2 EEK mutant) [µM] | Kd (FCHO2-N1+N2 E336A+F339S) [µM] | Kd [1] [µM]
1 | B1 | 110 | 55 | –
2 | QSEEQVSKNLFGPPLESAFDHED [FCHO1 C peptide (residues 426 to 448)] | – | – | 44
